In patent US12338277:

Tests used:
Test in all cases: cell-based or functional assay
[1] = biological target: HIV-1 envelope of pseudovirus X1254_c3 (HIV-1)
[2] = biological target: HIV-1 Env of pseudovirus Ce0393_C3 (HIV-1)
[3] = biological target: HIV-1 Env of pseudovirus 0815.v3.c3 (HIV-1)
[4] = biological target: HIV-1 envelope of pseudovirus 6244_13_85_4576 (HIV-1)
[5] = biological target: HIV-1 envelope of pseudovirus 6480.v4.c25 (HIV-1)
[6] = biological target: HIV-1 envelope of pseudovirus 6952.v1.c20 (HIV-1)
[7] = biological target: HIV-1 Env of pseudovirus Ce1086_B2 (HIV-1)
[8] = biological target: HIV-1 envelope of pseudovirus C3347.c11 (HIV-1)
[9] = biological target: HIV-1 Env of pseudovirus ZM249M.PL1 (HIV-1)
[10] = biological target: HIV-1 envelope of pseudovirus 89-F1_2_25 (HIV-1)
[11] = biological target: HIV-1 Env of pseudovirus BJOX010000.06.2 (HIV-1)
[12] = biological target: HIV-1 Env of pseudovirus 235-47 (HIV-1)
[13] = biological target: HIV-1 Env of pseudovirus Q23.17 (HIV-1)
[14] = biological target: HIV-1 envelope of pseudovirus 235-47 (HIV-1)
[15] = biological target: HIV-1 envelope spike of pseudovirus R1166.c1 (HIV-1)
[16] = biological target: HIV-1 envelope spike of pseudovirus SS1196.1 (HIV-1)
[17] = biological target: HIV-1 envelope of pseudovirus HIV-16845-2.22 (HIV-1)
[18] = biological target: HIV-1 envelope of pseudovirus 7030102001E5(Rev-) (HIV-1)
[19] = biological target: HIV-1 envelope of pseudovirus P1981_C5_3 (HIV-1)
[20] = biological target: HIV-1 Env of pseudovirus Q259.d2.17 (HIV-1)
[21] = biological target: HIV-1 envelope of pseudovirus Ce1172_H1 (HIV-1)
[22] = biological target: HIV-1 Env of pseudovirus CNE20 (HIV-1)
[23] = biological target: HIV-1 envelope of pseudovirus Du156.12 (HIV-1)
[24] = biological target: HIV-1 envelope of pseudovirus Q259.d2.17 (HIV-1)
[25] = biological target: HIV-1 envelope of pseudovirus 9004SS_A3_4 (HIV-1)
[26] = biological target: HIV-1 Env of pseudovirus SC422661.8 (HIV-1)
[27] = biological target: HIV-1 Env of pseudovirus 1394C9G1(Rev-) (HIV-1)
[28] = biological target: HIV-1 Env of pseudovirus BJOX028000.10.3 (HIV-1)
[29] = biological target: HIV-1 Env of pseudovirus C1080.c03 (HIV-1)
[30] = biological target: HIV-1 Env of pseudovirus MS208.A1 (HIV-1)
[31] = biological target: HIV-1 Env of pseudovirus ZM247v1(Rev-) (HIV-1)
[32] = biological target: HIV-1 Env of pseudovirus T255-34 (HIV-1)
[33] = biological target: HIV-1 Env of pseudovirus CAP45.2.00.G3 (HIV-1)
[34] = biological target: HIV-1 Env of pseudovirus 6041.v3.c23 (HIV-1)
[35] = biological target: HIV-1 envelope spike of pseudovirus BaL.26 (HIV-1)
[36] = biological target: HIV-1 Env of pseudovirus T257-31 (HIV-1)
[37] = biological target: Murine leukemia virus (MuLV) envelope on pseudovirus (Murine leukemia virus)
[38] = biological target: HIV-1 Env of pseudovirus 6952.v1.c20 (HIV-1)
[39] = biological target: HIV-1 envelope spike of pseudovirus YU-2 (HIV-1) (UniProt P35961)
Sequence of HIV-1 envelope spike of pseudovirus YU-2 (HIV-1) (P35961 32-843): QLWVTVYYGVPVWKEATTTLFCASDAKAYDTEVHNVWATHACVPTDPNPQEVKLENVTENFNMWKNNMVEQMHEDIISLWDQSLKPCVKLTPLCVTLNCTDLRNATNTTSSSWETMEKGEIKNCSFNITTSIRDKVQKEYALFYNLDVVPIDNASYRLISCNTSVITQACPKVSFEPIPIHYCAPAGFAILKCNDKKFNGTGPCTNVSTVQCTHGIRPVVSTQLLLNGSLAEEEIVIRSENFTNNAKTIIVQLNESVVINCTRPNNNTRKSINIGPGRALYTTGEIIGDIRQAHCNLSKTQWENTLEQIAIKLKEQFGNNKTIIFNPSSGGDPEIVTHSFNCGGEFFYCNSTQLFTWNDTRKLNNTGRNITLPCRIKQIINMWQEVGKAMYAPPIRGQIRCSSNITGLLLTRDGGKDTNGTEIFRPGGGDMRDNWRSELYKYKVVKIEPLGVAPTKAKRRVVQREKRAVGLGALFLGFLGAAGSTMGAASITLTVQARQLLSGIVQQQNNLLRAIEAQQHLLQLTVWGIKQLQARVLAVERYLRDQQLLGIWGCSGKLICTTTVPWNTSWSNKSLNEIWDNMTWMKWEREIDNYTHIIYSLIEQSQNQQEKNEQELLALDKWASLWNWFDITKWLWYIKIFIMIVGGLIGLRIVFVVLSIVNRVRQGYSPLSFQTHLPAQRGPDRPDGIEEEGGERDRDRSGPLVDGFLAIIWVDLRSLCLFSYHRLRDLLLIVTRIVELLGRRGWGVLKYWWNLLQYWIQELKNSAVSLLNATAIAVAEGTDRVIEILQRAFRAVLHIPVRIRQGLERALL

[40] = biological target: HIV-1 envelope of pseudovirus 191084 B7-19 (HIV-1)
[41] = biological target: HIV-1 Env of pseudovirus ZM197M.PB7 (HIV-1)
[42] = biological target: HIV-1 Env of pseudovirus YU-2 (HIV-1) (UniProt P35961)
Sequence of HIV-1 Env of pseudovirus YU-2 (HIV-1) (P35961 32-843 limits assumed): as the sequence (P35961 32-843) above

[43] = biological target: HIV-1 envelope of pseudovirus WEAU_d15_410_787 (HIV-1)
[44] = biological target: HIV-1 Env of pseudovirus X2131_C1_85 (HIV-1)
[45] = biological target: HIV-1 envelope of pseudovirus Ce0682_E4 (HIV-1)
[46] = biological target: HIV-1 envelope of pseudovirus T250-4 (HIV-1)
[47] = biological target: HIV-1 envelope of pseudovirus 3103.v3.c10 (HIV-1)
[48] = biological target: HIV-1 Env of pseudovirus Q451.e2 (HIV-1)
[49] = biological target: HIV-1 envelope of pseudovirus 620345.c01 (HIV-1)

Sequence of 10-1074 (antibody) (VH): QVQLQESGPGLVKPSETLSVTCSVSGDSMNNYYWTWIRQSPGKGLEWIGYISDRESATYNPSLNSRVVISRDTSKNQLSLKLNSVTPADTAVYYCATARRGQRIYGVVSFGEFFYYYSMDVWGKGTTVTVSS
Sequence of 10-1074 (antibody) (V domain): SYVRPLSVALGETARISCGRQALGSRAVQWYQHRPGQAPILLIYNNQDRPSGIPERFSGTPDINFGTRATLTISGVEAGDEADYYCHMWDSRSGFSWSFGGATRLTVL

Substance: 10-1074 (antibody)
- IC50 (TZM-bl neutralization) [1]: 0.089 µg/mL
- IC80 (TZM-bl neutralization) [2]: > 50 µg/mL
- IC80 (TZM-bl neutralization) [3]: 0.138 µg/mL
- IC50 (TZM-bl neutralization) [4]: 0.202 µg/mL
- IC50 (TZM-bl neutralization) [5]: 0.009 µg/mL
- IC50 (TZM-bl neutralization) [6]: 0.037 µg/mL
- IC80 (TZM-bl neutralization) [7]: > 50000 ng/mL
- IC50 (TZM-bl neutralization) [8]: > 50 µg/mL
- IC80 (TZM-bl neutralization) [9]: > 50 µg/mL
- IC50 (TZM-bl neutralization) [10]: > 50 µg/mL
- IC80 (TZM-bl neutralization) [11]: > 50 µg/mL
- IC80 (TZM-bl neutralization) [12]: 0.163 µg/mL
- IC80 (TZM-bl neutralization) [13]: 0.021 µg/mL
- IC50 (TZM-bl neutralization) [14]: 0.05 µg/mL
- IC50 (TZM-bl neutralization assay) [15]: > 40 µg/mL
- IC80 (TZM-bl neutralization assay) [15]: > 40 µg/mL
- IC50 (TZM-bl neutralization assay) [16]: 10 ng/mL
- IC80 (TZM-bl neutralization assay) [16]: 0.127 µg/mL
- IC50 (TZM-bl neutralization) [17]: 1.17 µg/mL
- IC50 (TZM-bl neutralization) [18]: 6 ng/mL
- IC50 (TZM-bl neutralization) [19]: 5 ng/mL
- IC80 (TZM-bl neutralization) [20]: > 50 µg/mL
- IC50 (TZM-bl neutralization) [21]: 0.047 µg/mL
- IC80 (TZM-bl neutralization) [22]: 5 ng/mL
- IC50 (TZM-bl neutralization) [23]: 0.015 µg/mL
- IC50 (TZM-bl neutralization) [24]: > 50 µg/mL
- IC50 (TZM-bl neutralization) [25]: 11 ng/mL
- IC80 (TZM-bl neutralization) [26]: 0.418 µg/mL
- IC80 (TZM-bl neutralization) [27]: 0.191 µg/mL
- IC80 (TZM-bl neutralization) [28]: > 50 µg/mL
- IC80 (TZM-bl neutralization) [29]: > 50 µg/mL
- IC80 (TZM-bl neutralization) [30]: > 50 µg/mL
- IC80 (TZM-bl neutralization) [31]: 0.186 µg/mL
- IC80 (TZM-bl neutralization) [32]: > 50 µg/mL
- IC80 (TZM-bl neutralization) [33]: > 50 µg/mL
- IC80 (TZM-bl neutralization) [34]: > 50 µg/mL
- IC50 (TZM-bl neutralization assay) [35]: 0.033 µg/mL
- IC80 (TZM-bl neutralization assay) [35]: 0.124 µg/mL
- IC80 (TZM-bl neutralization) [36]: > 50 µg/mL
- IC50 (TZM-bl neutralization assay) [37]: > 40 µg/mL
- IC80 (TZM-bl neutralization assay) [37]: > 40 µg/mL
- IC80 (TZM-bl neutralization) [38]: 0.138 µg/mL
- IC50 (TZM-bl neutralization assay) [39]: 0.143 µg/mL
- IC80 (TZM-bl neutralization assay) [39]: 0.398 µg/mL
- IC50 (TZM-bl neutralization) [40]: 0.032 µg/mL
- IC80 (TZM-bl neutralization) [41]: > 50 µg/mL
- IC80 (TZM-bl neutralization) [42]: 0.398 µg/mL
- IC50 (TZM-bl neutralization) [43]: 0.104 µg/mL
- IC80 (TZM-bl neutralization) [44]: 0.064 µg/mL
- IC50 (TZM-bl neutralization) [45]: > 50 µg/mL
- IC50 (TZM-bl neutralization) [46]: < 1 ng/mL
- IC50 (TZM-bl neutralization) [47]: 0.037 µg/mL
- IC80 (TZM-bl neutralization) [48]: > 50 µg/mL
- IC50 (TZM-bl neutralization) [49]: > 50 µg/mL

Substance: PGT121 (antibody)
- IC50 (TZM-bl neutralization) [1]: 0.056 µg/mL
- IC80 (TZM-bl neutralization) [2]: > 50 µg/mL
- IC80 (TZM-bl neutralization) [3]: 0.105 µg/mL
- IC50 (TZM-bl neutralization) [4]: 0.249 µg/mL
- IC50 (TZM-bl neutralization) [5]: 0.017 µg/mL
- IC50 (TZM-bl neutralization) [6]: 0.085 µg/mL
- IC80 (TZM-bl neutralization) [7]: 6 ng/mL
- IC50 (TZM-bl neutralization) [8]: > 50 µg/mL
- IC80 (TZM-bl neutralization) [9]: > 50 µg/mL
- IC50 (TZM-bl neutralization) [10]: > 50 µg/mL
- IC80 (TZM-bl neutralization) [11]: > 50 µg/mL
- IC80 (TZM-bl neutralization) [12]: 1.68 µg/mL
- IC80 (TZM-bl neutralization) [13]: 0.031 µg/mL
- IC50 (TZM-bl neutralization) [14]: 0.332 µg/mL
- IC50 (TZM-bl neutralization assay) [15]: > 40 µg/mL
- IC80 (TZM-bl neutralization assay) [15]: > 40 µg/mL
- IC50 (TZM-bl neutralization assay) [16]: 8 ng/mL
- IC80 (TZM-bl neutralization assay) [16]: 0.03 µg/mL
- IC50 (TZM-bl neutralization) [17]: 12.7 µg/mL
- IC50 (TZM-bl neutralization) [18]: 10 ng/mL
- IC50 (TZM-bl neutralization) [19]: 4 ng/mL
- IC80 (TZM-bl neutralization) [20]: > 50 µg/mL
- IC50 (TZM-bl neutralization) [21]: 0.023 µg/mL
- IC80 (TZM-bl neutralization) [22]: 8 ng/mL
- IC50 (TZM-bl neutralization) [23]: 0.007 µg/mL
- IC50 (TZM-bl neutralization) [24]: 8.99 µg/mL
- IC50 (TZM-bl neutralization) [25]: 8 ng/mL
- IC80 (TZM-bl neutralization) [26]: 0.46 µg/mL
- IC80 (TZM-bl neutralization) [27]: 3.37 µg/mL
- IC80 (TZM-bl neutralization) [28]: > 50 µg/mL
- IC80 (TZM-bl neutralization) [29]: > 50 µg/mL
- IC80 (TZM-bl neutralization) [30]: > 50 µg/mL
- IC80 (TZM-bl neutralization) [31]: 0.126 µg/mL
- IC80 (TZM-bl neutralization) [32]: > 50 µg/mL
- IC80 (TZM-bl neutralization) [33]: 6.54 µg/mL
- IC80 (TZM-bl neutralization) [34]: > 50 µg/mL
- IC50 (TZM-bl neutralization assay) [35]: 0.021 µg/mL
- IC80 (TZM-bl neutralization assay) [35]: 0.081 µg/mL
- IC80 (TZM-bl neutralization) [36]: > 50 µg/mL
- IC50 (TZM-bl neutralization assay) [37]: > 40 µg/mL
- IC80 (TZM-bl neutralization assay) [37]: > 40 µg/mL
- IC80 (TZM-bl neutralization) [38]: 0.605 µg/mL
- IC50 (TZM-bl neutralization assay) [39]: 0.098 µg/mL
- IC80 (TZM-bl neutralization assay) [39]: 0.356 µg/mL
- IC50 (TZM-bl neutralization) [40]: 0.042 µg/mL
- IC80 (TZM-bl neutralization) [41]: > 50 µg/mL
- IC80 (TZM-bl neutralization) [42]: 0.356 µg/mL
- IC50 (TZM-bl neutralization) [43]: 0.083 µg/mL
- IC80 (TZM-bl neutralization) [44]: 0.058 µg/mL
- IC50 (TZM-bl neutralization) [45]: > 50 µg/mL
- IC50 (TZM-bl neutralization) [46]: 1 ng/mL
- IC50 (TZM-bl neutralization) [47]: 0.042 µg/mL
- IC80 (TZM-bl neutralization) [48]: > 50 µg/mL
- IC50 (TZM-bl neutralization) [49]: > 50 µg/mL
